Target: csk21_human CSNK2A1 (UniProt P68400)
Sequence (P68400 whole entry, looked up): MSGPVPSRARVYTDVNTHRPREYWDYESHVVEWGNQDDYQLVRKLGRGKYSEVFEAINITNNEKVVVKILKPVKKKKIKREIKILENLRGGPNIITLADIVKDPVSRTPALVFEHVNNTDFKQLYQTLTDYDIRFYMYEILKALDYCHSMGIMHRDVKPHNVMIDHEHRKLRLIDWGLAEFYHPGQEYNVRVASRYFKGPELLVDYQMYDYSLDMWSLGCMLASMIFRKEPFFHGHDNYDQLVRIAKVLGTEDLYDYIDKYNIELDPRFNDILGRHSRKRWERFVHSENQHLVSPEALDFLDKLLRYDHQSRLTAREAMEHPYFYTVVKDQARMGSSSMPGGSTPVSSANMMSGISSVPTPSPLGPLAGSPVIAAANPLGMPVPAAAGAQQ

Sequence of Casein kinase II subunit beta (Homo sapiens), P67870 L39R (P67870 whole entry L39R): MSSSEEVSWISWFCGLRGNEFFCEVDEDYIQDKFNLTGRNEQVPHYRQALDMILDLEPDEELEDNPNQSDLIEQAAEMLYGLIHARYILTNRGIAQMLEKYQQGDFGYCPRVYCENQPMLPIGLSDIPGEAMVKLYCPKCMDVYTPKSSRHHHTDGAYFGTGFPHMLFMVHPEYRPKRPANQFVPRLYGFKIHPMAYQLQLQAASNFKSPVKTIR

Substance: Casein kinase II subunit beta (Homo sapiens), P67870 L39R
- effect of a mutation on the interaction: decreasing interaction strength

From IntAct's records for PubMed 36833176
